Publication PMC10652106, “Crosstalk between the tRNA methyltransferase Trm1 and RNA chaperone La influences eukaryotic tRNA maturation”
Residue numbers refer to the chain shown, from its start.

What was measured:
[1] = molecular target: T1, Trm1 M24 (nuclear isoform, WT) (Schizosaccharomyces pombe, UniProt Q9P804 24-548); assay: EMSA; replicate 1 of 3; Hill coefficient 7.061; no SAM listed; EMSA: 20 mM Tris-HCl pH 7.6, 100 mM KCl, 0.2 mM EDTA, 1 mM DTT; 32 °C 20 min, ice 2 min; 8% native gel at 4 °C; conditions: protein: recombinant; label: 32P (alpha-ATP, internal); tRNA fold, single strand
T1 sequence: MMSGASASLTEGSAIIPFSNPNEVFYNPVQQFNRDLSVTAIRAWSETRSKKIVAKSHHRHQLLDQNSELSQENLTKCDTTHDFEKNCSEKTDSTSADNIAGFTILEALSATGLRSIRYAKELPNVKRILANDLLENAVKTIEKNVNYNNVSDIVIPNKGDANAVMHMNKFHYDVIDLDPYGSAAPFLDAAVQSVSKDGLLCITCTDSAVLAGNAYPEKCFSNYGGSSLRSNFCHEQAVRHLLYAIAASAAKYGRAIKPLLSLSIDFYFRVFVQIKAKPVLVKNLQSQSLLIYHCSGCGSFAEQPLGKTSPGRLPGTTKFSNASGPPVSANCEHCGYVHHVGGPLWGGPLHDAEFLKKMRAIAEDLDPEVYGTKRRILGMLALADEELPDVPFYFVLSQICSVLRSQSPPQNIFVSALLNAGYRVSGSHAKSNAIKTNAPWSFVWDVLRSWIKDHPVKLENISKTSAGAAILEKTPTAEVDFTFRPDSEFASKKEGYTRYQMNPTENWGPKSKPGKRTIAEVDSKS

[2] = molecular target: T2, Trm1 M24 D201A (catalytic-dead) (Schizosaccharomyces pombe, UniProt Q9P804 24-548, D201A); assay: EMSA; affinity comparable to WT; Kd values not in material; no SAM listed; EMSA: 20 mM Tris-HCl pH 7.6, 100 mM KCl, 0.2 mM EDTA, 1 mM DTT; 32 °C 20 min, ice 2 min; 8% native gel at 4 °C; conditions: protein: recombinant; label: 32P (alpha-ATP, internal); tRNA fold, single strand
T2 sequence: T1 sequence with D178A

B1: pre-tRNA SerUGA (structured_RNA)
RNA: GUCACUAUGUCCGAGUGGUUAAGGAGUUAGACUUGAAUCCUGUCUAGUCAUCUAAUGGGCUUUGCCCGCGCAGGUUCAAAUCCUGCUGGUGACGGUAUUU
Kd [1]: 576 nM
binding result [2]: binds
